The source of these data is paper PMC9765406.

The target of experiment [1] is BfpD, type IV pilus (bundle-forming pilus) extension ATPase from enteropathogenic Escherichia coli (enteropathogenic Escherichia coli (EPEC)). The experiment in a line: cryo-EM structure.
Experiment [2] has the same target. The experiment in a line: negative-stain electron microscopy with reference-free 2D averaging.

For orientation: stoichiometry N means the number of molecules, sites or subunits per partner or assembly. Consider “BfpD, type IV pilus (bundle-forming pilus) extension ATPase from enteropathogenic Escherichia coli (enzyme)”, for which the stoichiometry N in experiment [1] and in experiment [2] was 6 in each case.
